Laboratory results taken from the nanobody polyreactivity screen of Harvey et al. (2022).

Test: yeast display, Sf9 membrane polyspecificity reagent, FACS + sequencing; frameworks hold sequencing errors
How it was run: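 Galactose induction of a Saccharomyces cerevisiae BJ5465 synthetic nanobody display library ran 36–48 hours. The cells were then stained for 1 hour at 4 °C with 10% biotinylated, detergent-solubilized Sf9 membrane reagent, pulled down on streptavidin microbeads and FACS-sorted into low and high (top ~1%) gates on expression and reagent-binding fluorescence. Labels for polyreactivity follow the gate of origin.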

Row | Sequence | polyreactivity (PSR sort gate)
1 | QVQLVESGGGLVQAGGSLRLSCAASGSIIRINAMGWYRQAPGKERELVAAISTRSGRTYYADSVKGRFTISRDNAKNTVYLQLNSLKPEDTAFYYCARYRTQASGYGGYHYWGQGTQVTVSS | high polyreactivity
2 | QVQLVESGGGLVQAGGSLRLSCAASGSTFWKYVMGWYRQAPGKVRELVAAITSRGGSTYADSVKGRFTISRDNAKNTVYLQMNSLKPEDTAVYYCAATKFWYYGYDYWGQGTQVTVSS | low polyreactivity
3 | QVQLVESGGGLVQAGGSLRLSCAASGSIFYINAMGWYRQAPGKEREFVARISWRSGSTSYADSVKGRFTISRDNAKNTVYLQMNSLKPEDTAVYYCNAGDFANDNGGRRDQFTWEDEYWGQGTQVTVSS | low polyreactivity
4 | QVQLVESGGGLVQAGGSLRLSCAASGSTFRDNAMGWYRQAPGKERELVAAISRRGGNTYYADSVKGRFTISRDNAKNTVYLQMNSLKPEDTAVYYCAAEVKTSYSYTHDGYWGQGTQVTVSS | high polyreactivity
5 | QVQLVESGGGLVQAGGSLRLSCAASGSTFVRNAMGWYRQAPGKERELVAGISTGDNTYYADSVKGRFTISRDNAKNTVYLQMNSLKPEDSAVYYCAARGLPSNYYYYVHGYIMDYWGQGTQVTVSS | low polyreactivity
6 | FVQAGGSLRLTCAASGSTFYGNAMGWYRQATGKERELVAGITGDGGSTYYADSVKGRFTISRDNAKNTVYLQMNSLKPEDTAVYYCAVDVIVLGQWPRQLDEFDYWGQGTQVTVSS | low polyreactivity
7 | QVQLVESGGGLVQAGGSLRLSCAASGRIFGIYAMGWYRQAPGKERELVADIDVSDGSTYYADSVKGRFTISRDNAKNTVYLQMNSLKPEDTAVYYCNAEDSSRWYDWYLHDYWGQGTQVTVSS | high polyreactivity
8 | QFQLVESGGGLVQAGGSLRLSCAASGRIFYYNAMGWYRQAPGKERELVASITGSGGSTYYADSVKGRFTISRDNAKNTVYLQMNSLKPEDTAVYYCAKREYLYPYYYVAKYDYWGQGTQVTVSS | low polyreactivity
9 | QVQLVESGGGLVQAGGSLRLSCAASGLTLYDYAMGWYRQAPGKERELVADIDFNGGSTSYADSVKGRFTISRDNAKNTVYLQMNSLKPEDTAVYYCNTRDRGDVVTGLDYWGQGTQVTVSS | low polyreactivity
10 | QVQLVESGGGLVQAGGSLRLSCAASGRTLGIYAMGWYIQAPGKERELVADISRDSSTYYADSVKGRFTISRDNAKNTVYLQMNSLKPEDTAVYYCNADQTPRDVTDWWYDYDYWGQGTQVTVSS | low polyreactivity
11 | QVQLVESGGGLVQAGGSLRLSCAASGITPDYAMGWYRQAPGKERELVAAITWSGGRTYYADSVKGRFTISRDNAKNTVYLQMNSLKPEDTAVYYCAAEHYLGYDYWGQGTQVTVSS | low polyreactivity
12 | QVQLVESGGGLVQAGGSLRLSCAASGSTFGVYARGWYRQAPGKERELVAAIRDRGGSTYYADSVKGRFTISRDNAKNTVYLQMNSLKPEDTAVYYCATRTWWEYYYWGQGTQVTVSS | high polyreactivity
13 | QVQLVEAGGGLVQAGGSLRLSCAASGRIFGRYVMGWYRQAPGKERELVASISTRRGRTYYADSVKGRFTSSRDNAKNTVYLQMNSLKPEDTAVYYCATAYSSHYGIHRRYEYWGQGTQVTVSS | high polyreactivity
14 | QVQLVESGGGLVQAGGSLRLSCAASGSIFYFYAMGWYRQAPGKERELVAAISWSGGSTYYADSVKGRFTISRDNAKNTVYLQMNSLKPEDTAVYYCNAADYWYWENDYWGQGTQVTVSS | low polyreactivity
15 | QVQLVESGGGLVQAGGSLRLSCAASGSIFYFYTMGWYRQAPGKERELVASITYSGGRTYYADSVKGRFTISRDNAKNTVYLQMNSLKPEDTAVYYCAVRGYRRYWGQGTQVTVSS | high polyreactivity
16 | QVQLVESGGGLVQAGGSLRLSCAASGRTFHTYAIGWYRQAPGKERELVAAITRRGGSTYYADSVKGRFTISRDNAKNTVYLQMNSLKPEDTAVYYSAAPWYGYWGQGTQVTVSS | high polyreactivity
17 | QVQLVESGGGLVQAGGSLRLSCAASGGTFPRNAMGWYRQAPGKERELVAAINQSGGRTYYADSVKGRFTISRDNAKNTVYLQLNSLKPEDTAVYYCAARVTYYRTYRGRQYGYWGQGTQVTVSS | high polyreactivity
18 | QVQLVESGGGLVQPGGSLRLSCAASGSTFLVYAMGWYRQAPGKERELVAVIDNGGDTYYADSVKGRFTISRDNAKNTVYLPMNSMKPEDTEVYYCAADLSYLGYCEYDYWGQGTQVNVSS | low polyreactivity
19 | QVQLVESGGGLVQAGGSLRLSCAASGFIFSYYAMGLYRQAPGKERELVAAIDYSGGSTNYADSVKGRFTISRDIAKYTVYLQMNSLKPEDTAVYYCNAEYTWHRGYDYWGQGTQVTVSS | low polyreactivity
20 | QVQLVESGGGLVQAGGSLRLSCAASGRTYYYYAMGWYRQAPGTQRELVASIRYSTGSTYYADSVKARFTISRDNAKNTVYLQKNSLKPVDTAVYYCAGLRYARASRYDYWGLGTQVTVSS | high polyreactivity
21 | QVQLVESGGGLVQAGGSLRLSCAASGYIFSYYAMGWNRPAPGKERELVATISSGGSTNYADSVKGRFTISRDNAKNTVYLQMNSLKPEDTAVYYCAATIGHNGFYYWGQGTLVTVSS | low polyreactivity
22 | QVQLVESGGGLVQAGGSLRLSCAASGRIFKSYVMGWYRQATGKERELVAAITRTGGSTYYADSVKGRFTISRDNAKNTVYLQMNSLKPVDTAVYYCNARYSWPRATWYDYWGQGTQVTVSS | high polyreactivity

Row | Sequence | polyreactivity (PSR sort gate)
23 | QVQLVESGGGLVQAGGSLRLSCAASGRIIGTNAMGWYRQAPGKEREMVAAITWRGGSTYYADSVKGRFTYSRDNAKNTVYLQKNSLKPEDTAVYYCNKDPPRFSGLDENDWGQGTQVTVSS | low polyreactivity
24 | QVQLVESGGGIVQAGGSLRLSCAASGITFEYNAIGWYRQAPGKARELVAAISQSSGSTYYADSVKGRFTISRDYAKNTVYLQMNSLKPEDTAVYYCNADTIIYEGGYWGQGTQVTVSS | low polyreactivity
25 | QVQLVESGGGLVQAGGSLRLSCAASGRTLWYYTMGWYRQAPGKERELVADITRGTSTNYADSVKGRFTISRDNAKNTVYLQMNSLKPEDTAVYHCNRAHGRSRYSRDYDSWGQGTQVTVSS | low polyreactivity
26 | QVQLVESGGGLVQAGGSLRLSCAASGITFQPYAMGWYRQAPGKEREFVAVISFRGGSTYYADSVKGRFTISRDNAKNTVYLQMNSLKPEDTAVYYCAALEYHGHTGGRVYYWVQGTQVTVSS | high polyreactivity
27 | QVQLVESGGGLVQAGGSLRLSCAASGRTLSWYAMGWYRQAPGKEWEFVAAITSSGASTYYADSVKGRFTISRDNANNTVYLQMNSLKPEDTAVYYCNAAWRRVWFNYCGQGTQVTVSS | high polyreactivity
28 | QVQLVESGGGLVQAGGSLRLSCAASGSIFWWNTMGWYRQAPGTERELVAAITFSGGSTYYADSVKGRFTISRDNAKNTVYLQMNSLKPEDTAVYYCNADGWVSVRGTWSDGGYWGQGTQVTVSS | low polyreactivity
29 | QVQLVEAGGGLVQAGGSLRLCCAASGSTFVHYAMGWYRQAPGKERELVAAITTSGTGTFYADSVKGRFTISRENAKNNVYLQMNSLKPEETAVNYCAADIYPVWIYLLYVYWGQGTQVTVSS | low polyreactivity
30 | QVQLVESGGGLVQAGVSLRLSCAASGRTFRRYVMGWNRQAPGKERELVASITRGTGTDYADSVKGRFTISRDNRMNTVYLQMNSLKPEDTAVYYGNVKFGQPIYGEFDYWGQGTQVTVSS | low polyreactivity
31 | QVQLVESGGGLLQAGGSLRLSCAASGSTFYDNAMGWYRQAPGKERELVAAISYSGASTYYADSVKGRFTISRDNEKNTVYLQMNSLKPEDTAVYYCAKTFYSLYWGQGTQVTGSS | low polyreactivity
32 | QVQLVESGGGLVQAGGSLRLSCAASGFTFDRNAMGWYRQAPGKERGFVAAISSSGGRTYYADSVKGRFTISRDNAKITVYLEMNSLKQEDTALYYCAADFVSRPSAYGSSYYWGQGTQVTVSS | high polyreactivity
33 | QVQLVESGGGLVQAGGSLRLSCAASGRIFALYAMGWYRQAPGKDRELVAAITSSDGSTYYADSVKGRFTISRDIAKNSVYFQMKSLKPEDTAVYYSAAVWWRYYQDPYYYWGQGTQVTVSS | low polyreactivity
34 | QVQLVESGGGLVQAGGSLRLSCAASGLTFDVYTMGWYRQAPGKETEFVAAITWDGGITYYADSVKGRFTISRDNAKNSVYLQMNSLKPEDTAVYYCAADYALGEVYWYNYWGLGTQVTVSS | low polyreactivity
35 | QVQLVESGGGLVQAGGSLRLSCAASGIIFSSYVMGWYRKATGKERELVAAISSRGVSTYYADSVKGRFTISRDNAKNTVYLQMNSLKPEDTAVYYCNAKDKQGRKQFKLCAGYYLGQGTQVTVSS | high polyreactivity
36 | QVQLVESGGGLVQAGGSRRLSCAASGRIFSQNTRGCYRQAPAKERELVAVISWRCGRTSYSDSVKGRFTISRDNSKNTVFLKMKSLKQEDTAVYYCAASAKLHYYRTYRYNYWGQGTQVTVSS | high polyreactivity
37 | QVQLVESGGGLVQAGGSLRLSCAASGITLRRNAMGWYRQAPGKERELVARISTTGGSTYYADSVKGRFTISRDNAKNTVYLQMNSLKPEDTAVYYCAADYVQYEFEYWGQGTQVTVSS | high polyreactivity
38 | QVQLVESGGGLVQAGGSLRLSCAASGRIFTTYAMGWYRQAPGKEMELVAAIDYSDGSTYYADSVKGRFTISRDNAKNTVYLQMNSLNPEDTAVYYCAADGTYVWGSEEGNYWGQGTQVTVSS | low polyreactivity
39 | QVQLVESGGGLVQAGGSLRLSCAASGRTFDIYAMGWYRQAPGKERELVADITWSDGTTYYADSVKGRFTISRDNAKNTVYLQMNSLKPEDTAVYYCNAYTVYAYDYWGQGTQVTVSS | low polyreactivity
40 | QVQLVESGGGLVQAGGSLRLSCAASGLTFASYAMGWYRQAPGKERELVARISRSGGSTYYADSVKGRFTISRDNAKNTVYLQMKSLKPEDTAVYYCAADYIFRRYPVGGIYDYDYWGQGTQVSVSS | high polyreactivity
41 | QVQLVESGGGLVQAGGSLRLSCAASGSNFYGNAMGWYRQAPGKERELVAAISRSGGRSYYADSVKGRFTISRDNAKNTVYLHMNSLKPEATAVYYCAARQYQATLQYGYYPGYGYWGQGTQVTVSS | high polyreactivity
42 | QVQLVESGGGLVQAGGSLRLSCAASGNILIGNVMGWYRQAPGKERELVAAITSGGDTYYADSVKGRFTISRDNAKNTVYLQMNSLKPEDTAVYYCAADRPGQPKYEYWGQGTQVTVSS | low polyreactivity
43 | QVQLVESGGGLVQAGGSLRLSCAASGSTFVTYAMGWYRQAPGKEREFVAAISTTGTGRTYYADSVKGRFTISRDNAKNTVYLQMNSLKPEDTAVYYCAADLYGTYDYWGQGTQVTVSS | low polyreactivity
